Assay results reported in article doi:10.1101/2022.11.21.516512.

Molecular target: CTD-HAP40 complex bearing a C-terminal biotin tag (UniProt P23610)
Experiment: BLI

Chain of UniProt P23610 (P23610 whole entry, looked up, one chain of several): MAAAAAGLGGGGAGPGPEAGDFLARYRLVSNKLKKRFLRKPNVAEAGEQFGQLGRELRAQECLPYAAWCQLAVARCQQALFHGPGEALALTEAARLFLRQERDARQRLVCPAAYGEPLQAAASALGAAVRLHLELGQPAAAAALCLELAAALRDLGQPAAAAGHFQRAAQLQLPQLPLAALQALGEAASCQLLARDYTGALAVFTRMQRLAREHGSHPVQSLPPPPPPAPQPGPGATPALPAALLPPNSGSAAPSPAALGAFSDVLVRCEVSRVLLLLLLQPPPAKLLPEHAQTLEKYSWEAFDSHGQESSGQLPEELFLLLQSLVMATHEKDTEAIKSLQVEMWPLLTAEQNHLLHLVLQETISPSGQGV

HTT N-terminal HEAT and bridge domain construct (NTD, aa. 97-2069) (domain or fragment)
Kd: 10 nM
